Literature values in paper PMC4599702.

What was measured:
CBP KIX (Homo sapiens) = CBP KIX (Homo sapiens) (UniProt Q92793)
p300 KIX (Homo sapiens) = p300 KIX (Homo sapiens) (UniProt Q09472); test: microscale thermophoresis
UniProt Q09472, sequence (Q09472 563-648): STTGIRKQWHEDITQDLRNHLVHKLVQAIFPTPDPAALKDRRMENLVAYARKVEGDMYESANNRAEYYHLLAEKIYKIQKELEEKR

UniProt Q92793, sequence (Q92793 584-669): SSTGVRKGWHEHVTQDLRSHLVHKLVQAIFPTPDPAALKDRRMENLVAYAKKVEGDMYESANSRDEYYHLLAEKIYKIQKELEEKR

In the case of Myb (from UniProt P10242), the Kd (CBP KIX (Homo sapiens)) is listed as 650 nM and the Kd (p300 KIX (Homo sapiens)) is listed as 2500 nM.
